Data as given in US20160108110A1 (Novartis, published 2016).
Residue numbers refer to the chain shown, from its start.

B1: MOR023416 (antibody, V domains shown)
VH: QVQLLESGGGLVQPGGSLRLSCAASGFTFSDYALHWVRQAPGKGLEWVSRITYTGLYTYYADSVKGRFTISRDNSKNTLYLQMNSLRAEDTAVYYCAREHYYSSPMGGVAVDNWGQGTLVTVSS
VL: DIVLTQPPSVSGAPGQRVTISCSGSSSNIGYNTVSWYQQLPGTAPKLLIYSNNIRPSGVPDRFSGSKSGTSASLAITGLQAEDEADYYCSSWDFLIKSLVFGGGTKLTVL
notes: as MOR023415: built on parent Fab MOR021798, limits derived
B2: MOR023419 (antibody, V domains shown)
VH: B1 VH with L56V, Y59G
VL: B1 VL
notes: as for B1
B3: MOR023415 (antibody, V domains shown)
VH: B1 VH with L56F, Y59F
VL: B1 VL
notes: built on parent Fab MOR021798 with residues 48-66 of the VH replaced
B4: MOR023420 (antibody, V domains shown)
VH: B1 VH with T52S, T54M, L56S, Y57S
VL: B1 VL with S90G, W92F, F94W, L95V, I96T, K97S, S98H, L99V
notes: built on parent Fab MOR021798 with LCDR3 residues 90-99 of the VL replaced (last LCDR3 residue V kept)
B5: MOR023418 (antibody, V domains shown)
VH: B1 VH with L56Q, T58K
VL: B1 VL
notes: as for B1
B6: MOR023417 (antibody, V domains shown)
VH: B1 VH with L56M, Y57W, Y59E
VL: B1 VL
notes: as for B1
B7: MOR023403 (antibody, human IgG1, kappa, V domains shown)
VH: EVQLLESGGGLVQPGGSLRLSCAASGFTFSSYWMHWVRQAPGKGLEWVSVINLGSQAKYAGSVKGRFTISRDNSKNTLYLQMNSLRAEDTAVYYCARDSYIYDLHWGFDNWGQGTLVTVSS
VL: DIQMTQSPSSLSASVGDRVTITCRASQDISSYLNWYQQKPGKAPKLLIYAASRLQSGVPSRFSGSGSGTDFTLTISSLQPEDFATYYCQQSYTHPYTFGQGTKVEIKR
notes: as MOR023400: built on MOR022771, limits derived; the printed CDR is one residue shorter than the parent stretch
B8: MOR023404 (antibody, human IgG1, kappa, V domains shown)
VH: B7 VH with N52P, L53Y, G54M, S55G, Q56T, G61D
VL: B7 VL
notes: as for B7
B9: MOR023406 (antibody, human IgG1, kappa, V domains shown)
VH: EVQLLESGGGLVQPGGSLRLSCAASGFTFSSYWMHWVRQAPGKGLEWVSYIPYMGPGKFYADSVKGRFTISRDNSKNTLYLQMNSLRAEDTAVYYCARDSYIYDLHWGFDNWGQGTLVTVSS
VL: B7 VL
notes: as MOR023400: built on MOR022771, limits derived
B10: MOR023443 (antibody, human IgG1, kappa, V domains shown)
VH: EVQLLESGGGLVQPGGSLRLSCAASGFTFSSYYLHWVRQAPGKGLEWVSSIASSSPATHYADSVKGRFTISRDNSKNTLYLQMNSLRAEDTAVYYCARERSYAHDHWGQGTLVTVSS
VL: B7 VL with S30Y, S31I, Y32D, R53K, S91G, T93F, H94L, Y96Q
notes: as MOR023439: built on MOR022768, limits derived
B11: MOR023400 (antibody, human IgG1, kappa, V domains shown)
VH: B9 VH with Y50G, M54Q, G57A, K58I, F59N
VL: B7 VL
notes: built on the parent antibody for IgG conversion MOR022771 with residues 48-66 of the heavy chain replaced; Parent Fab MOR021830
B12: MOR023402 (antibody, human IgG1, kappa, V domains shown)
VH: B9 VH with Y50V, P52G, M54S, P56T, G57H, K58T, F59N
VL: B7 VL
notes: as for B9
B13: MOR023446 (antibody, human IgG1, kappa, V domains shown)
VH: B10 VH with A52S, S54A, S55G, P56H, A57Y, T58I, H59D
VL: B7 VL with S30Y, S31I, Y32D, R53K, S91G, T93F, H94L, Y96Q
notes: as for B10
B14: MOR023411 (antibody, human IgG1, kappa, V domains shown)
VH: B9 VH with Y50G, P52S, M54S, P56S, G57S, K58T, F59N
VL: B7 VL with S91A, T93Y
notes: as MOR023407: built on MOR022771, limits derived
B15: MOR023410 (antibody, human IgG1, kappa, V domains shown)
VH: B9 VH with Y50G, P52S, M54S, P56S, G57S, K58T, F59N
VL: B7 VL with S91A, T93F, H94A
notes: as for B14
B16: MOR023441 (antibody, human IgG1, kappa, V domains shown)
VH: B10 VH with S53G, S54M, S55G, P56N, A57Y, T58I, H59D
VL: B7 VL with S30Y, S31I, Y32D, R53K, S91G, T93F, H94L, Y96Q
notes: as for B10
B17: MOR023412 (antibody, human IgG1, kappa, V domains shown)
VH: B9 VH with Y50G, P52S, M54S, P56S, G57S, K58T, F59N
VL: B7 VL with S91A, T93Y, H94P
notes: as for B14
B18: MOR023413 (antibody, human IgG1, kappa, V domains shown)
VH: B9 VH with Y50G, P52S, M54S, P56S, G57S, K58T, F59N
VL: B7 VL with S91Y, T93Y, H94P
notes: as for B14
B19: MOR023447 (antibody, human IgG1, kappa, V domains shown)
VH: B10 VH with A52S, S54A, S55G, P56V, A57Y, T58K, H59D
VL: B7 VL with S30Y, S31I, Y32D, R53K, S91G, T93F, H94L, Y96Q
notes: as for B10
B20: MOR023407 (antibody, human IgG1, kappa, V domains shown)
VH: B9 VH with Y50G, P52S, M54S, P56S, G57S, K58T, F59N
VL: B7 VL with Q89F, S91M, T93Y
notes: built on the parent antibody for IgG conversion MOR022771 with residues 89-96 of the light chain replaced; Parent Fab MOR021830 has another HCDR2 (D53) and Q1 in the VH
B21: MOR023448 (antibody, human IgG1, kappa, V domains shown)
VH: B10 VH with A52S, S54I, P56G, A57F, H59E
VL: B7 VL with S30Y, S31I, Y32D, R53K, S91G, T93F, H94L, Y96Q
notes: as for B10
B22: MOR023439 (antibody, human IgG1, kappa, V domains shown)
VH: B10 VH with S50G, A52S, S54G, S55G, P56S, A57Y, T58I, H59N
VL: B7 VL with S30Y, S31I, Y32D, R53K, S91G, T93F, H94L, Y96Q
notes: built on the parent antibody for IgG conversion MOR022768 with residues 48-66 of the heavy chain replaced; Parent Fab MOR021823
B23: MOR022764 (antibody, human IgG1, lambda, V domains shown)
VH: EVQLVQSGAEVKKPGESLKISCKGSGYSFSTYWISWVRQMPGKGLEWMGIIDPSQSDTRYSPSFQGQVTISADKSISTAYLQWSSLKASDTAMYYCARVYGYVYMDVWGQGTLVTVSS
VL: SYELTQPLSVSVALGQTARITCSGDNLGKKYAYWYQQKPGQAPVLVIYDKTKRPSGIPERFSGSNSGNTATLTISRAQAGDEADYYCASYDWYSSSYVFGGGTKLTVLG
notes: human IgG1
B24: MOR022766 (antibody, human IgG1, lambda, V domains shown)
VH: B23 VH with Q55N, S56T
VL: B23 VL
notes: human IgG1
B25: MOR022768 (antibody, human IgG1, kappa, V domains shown)
VH: B10 VH with S50Y, A52S, S53G, S55G, P56S, A57S, H59Y
VL: B7 VL with S30Y, S31I, Y32D, R53K, S91G, T93F, H94L, Y96Q
notes: human IgG1
B26: MOR022771 (antibody, human IgG1, kappa, V domains shown)
VH: B9 VH with Y50G, P52S, M54S, P56S, G57S, K58T, F59N
VL: B7 VL
notes: human IgG1
B27: MOR022769 (antibody, human IgG1, kappa, V domains shown)
VH: B10 VH with S50Y, A52S, S53G, S54D, S55A, P56S, A57S, H59Y
VL: B7 VL with S30Y, S31I, Y32D, R53K, S91G, T93F, H94L, Y96Q
notes: human IgG1
B28: MOR022772 (antibody, human IgG1, kappa, V domains shown)
VH: B9 VH with Y50G, P52S, M54D, G55A, P56S, G57S, K58T, F59N
VL: B7 VL
notes: human IgG1
B29: MOR022767 (antibody, human IgG1, kappa, V domains shown)
VH: B10 VH with S50Y, A52S, S53G, S54E, S55G, P56S, A57S, H59Y
VL: B7 VL with S30Y, S31I, Y32D, R53K, S91G, T93F, H94L, Y96Q
notes: human IgG1

What follows are binders tested against T1, Human ANGPTL4(26-406)-FLAG-His6-Avi (human, UniProt Q9BY76 24-406, biotin on the C-terminal Avi tag in the biotinylated preparations (immobilised form in SET, ELISA and Octet)) (assay: SET assay).
T1 construct: also called full-length human ANGPTL4; hANGPTL4
T1 sequence: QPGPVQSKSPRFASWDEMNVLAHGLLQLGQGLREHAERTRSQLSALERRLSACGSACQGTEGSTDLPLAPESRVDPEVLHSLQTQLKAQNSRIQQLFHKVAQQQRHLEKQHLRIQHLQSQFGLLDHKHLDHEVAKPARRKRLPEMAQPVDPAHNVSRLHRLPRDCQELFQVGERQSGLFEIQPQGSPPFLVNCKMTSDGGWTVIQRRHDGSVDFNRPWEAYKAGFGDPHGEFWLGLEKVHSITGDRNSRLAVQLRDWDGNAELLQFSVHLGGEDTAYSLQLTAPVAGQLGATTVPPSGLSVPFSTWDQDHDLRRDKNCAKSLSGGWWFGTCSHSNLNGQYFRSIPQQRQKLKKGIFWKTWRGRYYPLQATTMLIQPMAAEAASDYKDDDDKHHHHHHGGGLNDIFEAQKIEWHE
Protocol: (§1) SET assays were performed as follows. In a 96-well polypropylene plate, a constant concentration of ANGPTL4 antibody was mixed with different concentrations of non-biotinylated human, cyno, mouse, or rat full-length ANPGLT4 protein, or human ANGPTL4 N-terminal domain protein (5-fold serial dilution) and incubated at 22° C. for 14 hours with constant shaking (300 rpm). On a pre-blocked 384-well streptavidin-coated Meso Scale Discovery (MSD) plate biotinylated ANGPTL4 (full-length human, cyno, mouse, or rat ANGPTL4, or human ANGPTL4 N-terminal domain) protein (1 nM, 15 μL per well) was immobilized and washed thereafter.
(§2) The equilibrium binding reactions (15 μL per well) were applied to the MSD plate with immobilized ANGPTL4 and incubated for 20 min at 22° C. The unbound material was removed by washing the plate 3 times with wash buffer, and the captured antibody was detected by adding Sulfo-tagged goat anti-human IgG (Meso Scale Discovery). After washing MSD read buffer T was added and the plate was developed using a Sector Imager 6000 (Meso Scale Discovery). The data were transferred to Microsoft Excel for analysis and plotted using GraphPad Prism v6. The KD values were determined by fitting the data to the following equation: […]
(§3) where Bₘₐₓ is the signal when no ANGPTL4 protein is present in solution, CAb is the constant concentration of ANGPTL4 antibody in solution, CAg is the concentration of ANGPTL4 in solution, and KD is the equilibrium dissociation constant.

| Binder | Kd |
| --- | --- |
| B1 | 1 pM |
| B2 | 2 pM |
| B3 | 1 pM |
| B4 | 1 pM |
| B5 | 19 pM |
| B6 | 6 pM |
| B7 | 3 pM |
| B8 | 8 pM |
| B9 | 3 pM |
| B10 | < 1 pM |
| B11 | 1 pM |
| B12 | 1 pM |
| B13 | < 1 pM |
| B14 | 2 pM |
| B15 | < 1 pM |
| B16 | < 1 pM |
| B17 | 1 pM |
| B18 | < 1 pM |
| B19 | < 1 pM |
| B20 | 1 pM |
| B21 | < 1 pM |
| B22 | < 1 pM |

What follows are binders tested against T1, Human ANGPTL4(26-406)-FLAG-His6-Avi (assay: cell-based or functional assay).

| Binder | Reversal of human ANGPTL4 inhibition of human LPL EC50 |
| --- | --- |
| B23 | 3000 pM |
| B24 | 3000 pM |
| B25 | 2000 pM |
| B26 | 4000 pM |
| B27 | 2000 pM |
| B28 | 5000 pM |
| B29 | 2000 pM |

These binders were tested against T1, Human ANGPTL4(26-406)-FLAG-His6-Avi (assay: SET assay (solution equilibrium titration, MSD), IgG).
Protocol: as §1, §2, §3

| Binder | Kd |
| --- | --- |
| B23 | 7 pM |
| B24 | 5 pM |
| B25 | 4 pM |
| B26 | 29 pM |
| B27 | 5 pM |
| B28 | 53 pM |
| B29 | 19 pM |
